In PMC4557121 (2015):

B1: A2 [not stated] / purified TRB3 protein [not stated] (parent complex)
chain 1: GGWLTRLLQTK
chain 2: MRATPLAAPAGSLSRKKRLELDDNLDTERPVQKRARSGPQPRLPPCLLPLSPPTAPDRATAVATASRLGPYVLLEPEEGGRAYQALHCPTGTEYTCKVYPVQEALAVLEPYARLPPHKHVARPTEVLAGTQLLYAFFTRTHGDMHSLVRSRHRIPEPEAAVLFRQMATALAHCHQHGLVLRDLKLCRFVFADRERKKLVLENLEDSCVLTGPDDSLWDKHACPAYVGPEILSSRASYSGKAADVWSLGVALFTMLAGHYPFQDSEPVLLFGKIRRGAYALPAGLSAPARCLVRCLLRREPAERLTATGILLHPWLRQDPMPLAPTRSHLWEAAQVVPDGLGLDEAREEEGDREVVLYG

Variants of: B1
Assay: SPR; TRB3 immobilized on CM5 sensor chips

Variant | Kd [nM]
chain 1 Q9A | 35600
chain 1 L7A | 11800
chain 1 G2A | 402
chain 1 K11A | 73.1
chain 1 L4A | 4320
chain 1 R6A | 0.142
chain 1 W3A | 3590
chain 1 T10A | 381
chain 1 T5A | 110
chain 1 G1A | 1640
